Experimental data taken from article PMC9133142 (Cell chemical biology, 2022).

Legend:
[1] = molecular target: ZDIII-WT, soluble purified protein with C-terminal SpyTag (Zika virus H/PF/2013, UniProt A0A024B7W1); assay: ELISA
[2] = molecular target: MBP alone (negative control in BLI) (Escherichia coli K12, UniProt P0AEX9 = MBP); assay: BLI
[3] = molecular target: ZDIII-WT as used in BLI (taken as the His6-MBP-ZDIII-WT fusion protein) (Zika virus H/PF/2013, UniProt A0A024B7W1); assay: BLI
Sequence of UniProt A0A024B7W1 (A0A024B7W1 whole entry, looked up, the tested form may be a part): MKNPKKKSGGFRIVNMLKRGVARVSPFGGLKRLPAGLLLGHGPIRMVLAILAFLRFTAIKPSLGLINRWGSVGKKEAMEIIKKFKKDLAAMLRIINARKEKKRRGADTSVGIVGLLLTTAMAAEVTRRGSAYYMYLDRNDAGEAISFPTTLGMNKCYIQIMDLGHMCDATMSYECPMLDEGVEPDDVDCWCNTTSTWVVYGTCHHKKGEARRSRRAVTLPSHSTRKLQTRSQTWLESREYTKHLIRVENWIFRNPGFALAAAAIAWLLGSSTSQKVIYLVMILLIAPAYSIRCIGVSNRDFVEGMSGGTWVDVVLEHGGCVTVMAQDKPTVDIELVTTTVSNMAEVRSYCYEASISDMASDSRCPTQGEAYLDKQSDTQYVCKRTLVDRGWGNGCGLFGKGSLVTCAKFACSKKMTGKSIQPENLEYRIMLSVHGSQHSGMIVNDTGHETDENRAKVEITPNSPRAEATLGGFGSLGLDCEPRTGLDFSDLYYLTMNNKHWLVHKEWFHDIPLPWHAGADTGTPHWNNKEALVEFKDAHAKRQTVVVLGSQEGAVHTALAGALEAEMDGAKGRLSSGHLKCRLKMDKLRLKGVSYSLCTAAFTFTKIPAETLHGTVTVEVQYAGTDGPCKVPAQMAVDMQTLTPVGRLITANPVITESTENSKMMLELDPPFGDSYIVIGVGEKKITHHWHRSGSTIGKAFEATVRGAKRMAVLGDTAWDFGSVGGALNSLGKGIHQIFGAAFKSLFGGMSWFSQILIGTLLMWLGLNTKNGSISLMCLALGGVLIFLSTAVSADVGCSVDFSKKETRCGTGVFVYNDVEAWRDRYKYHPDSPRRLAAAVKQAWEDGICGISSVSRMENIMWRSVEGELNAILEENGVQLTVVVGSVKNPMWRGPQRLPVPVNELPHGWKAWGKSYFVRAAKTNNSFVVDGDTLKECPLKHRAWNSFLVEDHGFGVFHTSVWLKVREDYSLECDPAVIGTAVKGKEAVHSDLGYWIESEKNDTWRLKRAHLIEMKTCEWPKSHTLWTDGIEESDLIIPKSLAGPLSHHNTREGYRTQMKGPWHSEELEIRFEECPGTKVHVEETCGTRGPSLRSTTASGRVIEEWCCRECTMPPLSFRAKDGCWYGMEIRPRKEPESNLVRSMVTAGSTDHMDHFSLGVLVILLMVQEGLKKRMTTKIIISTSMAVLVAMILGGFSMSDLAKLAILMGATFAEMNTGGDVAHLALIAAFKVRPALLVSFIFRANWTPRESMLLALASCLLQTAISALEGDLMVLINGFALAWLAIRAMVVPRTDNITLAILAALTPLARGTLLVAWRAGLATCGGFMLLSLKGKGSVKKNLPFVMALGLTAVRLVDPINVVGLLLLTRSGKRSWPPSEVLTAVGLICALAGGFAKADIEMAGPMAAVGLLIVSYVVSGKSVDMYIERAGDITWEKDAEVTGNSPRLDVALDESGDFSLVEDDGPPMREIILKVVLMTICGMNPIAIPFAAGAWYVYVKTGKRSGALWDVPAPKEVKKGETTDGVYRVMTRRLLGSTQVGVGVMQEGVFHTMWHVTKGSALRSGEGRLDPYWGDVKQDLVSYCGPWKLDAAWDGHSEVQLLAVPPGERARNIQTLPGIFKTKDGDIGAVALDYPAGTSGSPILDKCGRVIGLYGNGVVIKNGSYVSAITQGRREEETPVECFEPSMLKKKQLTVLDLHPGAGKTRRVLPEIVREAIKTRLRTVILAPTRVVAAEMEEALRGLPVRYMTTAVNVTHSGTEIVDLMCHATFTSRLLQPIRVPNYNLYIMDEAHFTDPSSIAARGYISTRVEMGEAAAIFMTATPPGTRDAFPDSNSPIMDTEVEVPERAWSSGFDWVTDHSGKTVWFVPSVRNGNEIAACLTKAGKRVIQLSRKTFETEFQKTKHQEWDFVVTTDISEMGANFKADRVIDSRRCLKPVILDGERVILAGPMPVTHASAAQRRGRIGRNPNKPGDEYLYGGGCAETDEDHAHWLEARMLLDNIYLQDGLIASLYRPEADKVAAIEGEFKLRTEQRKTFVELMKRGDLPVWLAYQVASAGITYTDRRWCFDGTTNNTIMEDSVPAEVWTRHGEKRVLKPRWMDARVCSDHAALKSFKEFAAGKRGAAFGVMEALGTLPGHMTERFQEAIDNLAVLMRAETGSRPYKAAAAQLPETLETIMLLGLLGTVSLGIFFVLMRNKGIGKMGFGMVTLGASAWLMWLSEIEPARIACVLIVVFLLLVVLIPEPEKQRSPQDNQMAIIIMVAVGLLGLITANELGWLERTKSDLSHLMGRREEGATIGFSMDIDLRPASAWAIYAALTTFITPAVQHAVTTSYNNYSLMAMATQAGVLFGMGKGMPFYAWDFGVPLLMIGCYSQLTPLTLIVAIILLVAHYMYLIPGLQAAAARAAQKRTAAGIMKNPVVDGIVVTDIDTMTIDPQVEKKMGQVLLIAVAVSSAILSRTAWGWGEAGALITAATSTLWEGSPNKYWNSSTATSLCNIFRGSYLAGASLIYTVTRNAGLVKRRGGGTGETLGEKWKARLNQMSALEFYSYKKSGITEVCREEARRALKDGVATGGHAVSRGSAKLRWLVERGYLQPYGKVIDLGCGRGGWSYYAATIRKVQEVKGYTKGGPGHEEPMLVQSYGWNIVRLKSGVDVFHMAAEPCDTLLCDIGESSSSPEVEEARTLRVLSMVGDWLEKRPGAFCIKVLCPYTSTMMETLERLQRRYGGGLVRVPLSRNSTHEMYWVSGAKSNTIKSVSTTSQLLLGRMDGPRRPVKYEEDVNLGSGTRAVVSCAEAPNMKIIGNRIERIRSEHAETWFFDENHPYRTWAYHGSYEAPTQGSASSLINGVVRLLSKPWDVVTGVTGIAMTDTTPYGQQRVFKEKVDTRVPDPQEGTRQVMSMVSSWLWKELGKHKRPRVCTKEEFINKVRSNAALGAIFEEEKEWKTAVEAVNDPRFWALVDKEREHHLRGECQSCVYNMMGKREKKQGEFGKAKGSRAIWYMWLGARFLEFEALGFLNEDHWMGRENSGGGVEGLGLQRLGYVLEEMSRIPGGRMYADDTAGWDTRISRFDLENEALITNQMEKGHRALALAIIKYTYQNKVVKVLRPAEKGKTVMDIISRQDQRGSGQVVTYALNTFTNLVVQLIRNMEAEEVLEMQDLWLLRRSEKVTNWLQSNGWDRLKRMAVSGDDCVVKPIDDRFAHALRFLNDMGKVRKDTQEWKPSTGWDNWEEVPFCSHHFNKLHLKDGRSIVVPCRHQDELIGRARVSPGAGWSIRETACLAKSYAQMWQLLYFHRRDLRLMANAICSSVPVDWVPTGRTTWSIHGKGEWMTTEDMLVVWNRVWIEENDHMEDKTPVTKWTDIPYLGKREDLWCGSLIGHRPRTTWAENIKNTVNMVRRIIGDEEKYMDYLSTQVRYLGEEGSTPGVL

Row | Binder | EC50 [1] [nM] | binding result [2] | Kd [3] [nM]
1 | mAb ZV-67 (antibody, V domains shown) VH: QAQLQQSGTGLARPGASVKLSCKASGYTFTSYGISWVTQRAGQGLEWIGVIYPRSGNTYYNEKFRGKATLTADKSSSSAYMELRGLTAEDSAVYFCARENYGSVYWGQGTTLTVSS VL: DIVMTQSQKFMSTSVGDRVSITCKASQNVGTAVAWYQQKPGQSPKLLIYSASNRYTGVPDRFTGSGSGTDFTLTISNMQSEDLADYFCQQFSSYPYTFGGGTKLEIK | 14 | no binding | 43 ± 1.1
2 | mAb ZV-2 (antibody, V domains shown) VH: QVQLQESGAELMKPGASVKLSCKTSGYTFIGYWIEWLKQRPGHGLEWVGEIFPGSGRTKYNEKFKGRATFTADTSSNMAYMQLSSLTTEDSAIYYCARYYYGSYYALDYWGQGTSVTVSS VL: DIVMTQSPSSLSVSAGEKVTLSCKSSQSLLHSGNQKNYLAWYQQKPGQAPKLLIYGASTRESGVPDRFTGSGSGTDFTLTISSVQAEDLAVYYCQNDHSYPLTFGAGTKLELK | – | no binding | 10.7 ± 0.09
